Data set [1] concerns VchCAST RNA-guided transposition machinery (E. coli BL21(DE3) host, lacZ target). Nature of the data set: relative integration efficiency (T-RL orientation) vs wild-type transposon end (log2 (normalized fold change)); transposon end mutated: right end (5 bp flank + 75 bp right end); higher = more efficient transposition. The essentials: (§1)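 Barcoded pools of 1549 left-end or 1849 right-end transposon variants were cloned into a pUC57 mini-transposon donor. Each pool was co-transformed with a T7-driven effector plasmid (CRISPR array, tniQ-cas8-cas7-cas6, tnsA-tnsB-tnsC) into E. coli BL21(DE3) and plated with 0.1 mM IPTG at 37°C for 18 h. Input plasmids and genomic integration junctions were PCR-amplified and Illumina-sequenced, with two biological output replicates and four wild-type barcodes as reference. Relative integration efficiency is output/input barcode abundance fold change, normalised to wild-type barcodes and log-transformed.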

The test system is the same in data set [2]. Kind of data set: relative integration efficiency (T-LR orientation) vs wild-type transposon end (log2 (normalized fold change)); transposon end mutated: right end (5 bp flank + 75 bp right end); higher = more efficient transposition. The procedure, abridged:
as §1

± gives the standard deviation of the averaged measurements.

As for “ACATTTGTTGATACAACCATAAAATGATAATTACACCCATAATTTGATAATTACCACTCCCAATTTAACTATAACGCTCTGATCATAGTCAGACCAACATTGCTACGACCCGTATTCGCACCGACAC”, the “relative integration efficiency (log2)” value in data set [1] was -1.09 ± 0.25; in data set [2], 2.36 ± 0.071.
In the same order, the values of “ACATTTGTTGATACAACCATAAAATGATAATTACACCCATACCGGGATAATTATCACACCCATAAATTGATATTGCCTCTGATCATAGTCAGACCAACATTGCTACGACCCGTATTCGCACCGACAC” are -2.211 ± 0.0089 and -2.1 ± 0.086.
Regarding “ACATTTGTTGATACAACCATAAAATGATAATTACACCCATACCGGTCGCCGGCGACACAAACGCCCGGTCGCGGTAAGAGGATCATAGTCAGACCAACATTGCTACGACCCGTATTCGCACCGACAC”, the “relative integration efficiency (log2)” value is -2.6 ± 0.11 in data set [1] and 0.296 ± 0.13 in data set [2].
Taken in the same sequence, the figures for “ACATTTGTTGATACAACCATAAAATGATAATTACACCCATACCTTGATAATTATCACACCCATAAATTGATATTGCCTCTGATCATAGTCAGACCAACATTGCTACGACCCGTATTCGCACCGACAC” were -0.707 ± 0.089 and -0.978 ± 0.071.
In the same order, the values of “ACATTTGTTGATACAACCATAAAATGATAATTACACCCATATTAAGATAATTATCACACCCATAAATTGATATTGCCTCTGATCATAGTCAGACCAACATTGCTACGACCCGTATTCGCACCGACAC” are -0.6107 ± 0.0014 and -0.688 ± 0.12.
Taken in the same sequence, the figures for “ACATTTGTTGATACAACCATAAAATGATAATTACACCCATATTTTGATAATTATCACACCCATAAATTGATATTGCCTCTGATCATAGTCAGACCAACATTGCTACGACCCGTATTCGCACCGACAC” were -0.188 ± 0.015 and 0.00197 ± 0.1.
On to “ACATTTGTTGATACAACCATAAAATGATAATTACACCCATCAATTGATAATTATCACACCCCATTTAACTATAACGCTCTGATCATAGTCAGACCAACATTGCTACGACCCGTATTCGCACCGACAC”, for which the entries for the “relative integration efficiency (log2)” value in data set [1] and in data set [2] were -1.68 ± 0.23 and 1.6 ± 0.24, respectively.
Taken in the same sequence, the figures for “ACATTTGTTGATACAACCATAAAATGATAATTACACCCATCAATTGATAATTATCCCACCCAATTTAACTATAACGCTCTGATCATAGTCAGACCAACATTGCTACGACCCGTATTCGCACCGACAC” were -1.93 ± 0.31 and 1.54 ± 0.022.
Consider “ACATTTGTTGATACAACCATAAAATGATAATTACACCCATCAATTGATAATTATCCCACCCCATTTAACTATAACGCTCTGATCATAGTCAGACCAACATTGCTACGACCCGTATTCGCACCGACAC”, for which the “relative integration efficiency (log2)” value in data set [1] is -2.54 ± 0.3; in data set [2] it was 1.52 ± 0.21.
Taken in the same sequence, the figures for “ACATTTGTTGATACAACCATAAAATGATAATTACACCCATCCATTGATAATTATCACACCCATAAATTGATATTGCCTCTGATCATAGTCAGACCAACATTGCTACGACCCGTATTCGCACCGACAC” were -1.21 ± 0.089 and -1.63 ± 1.
With “ACATTTGTTGATACAACCATAAAATGATAATTACACCCATCCCGGTCGCCGGCGACACAAACGCCCGGTCGCGGTAAGAGGATCATAGTCAGACCAACATTGCTACGACCCGTATTCGCACCGACAC”, the “relative integration efficiency (log2)” value in data set [1] is -2.64 ± 0.12; in data set [2], 0.414 ± 0.23.
Taken in the same sequence, the figures for “ACATTTGTTGATACAACCATAAAATGATAATTACACCCATCCCGTGATAATTATCACACCCATAAATTGATATTGCCTCTGATCATAGTCAGACCAACATTGCTACGACCCGTATTCGCACCGACAC” were -1.77 ± 0.12 and -1.98 ± 0.74.
In the same order, the values of “ACATTTGTTGATACAACCATAAAATGATAATTACACCCATTAATTGATAATAATGACACCGAATTTAACTATAACGCTCTGATCATAGTCAGACCAACATTGCTACGACCCGTATTCGCACCGACAC” are -1.51 ± 0.32 and 2.24 ± 0.16.
In the same order, the values of “ACATTTGTTGATACAACCATAAAATGATAATTACACCCATTAATTGATAATGATGACACCGAATTTAACTATAACGCTCTGATCATAGTCAGACCAACATTGCTACGACCCGTATTCGCACCGACAC” are -1.4 ± 0.35 and 2.15 ± 0.056.
“ACATTTGTTGATACAACCATAAAATGATAATTACACCCATTAATTGATAATTGTGACACCGAATTTAACTATAACGCTCTGATCATAGTCAGACCAACATTGCTACGACCCGTATTCGCACCGACAC”: the “relative integration efficiency (log2)” value in data set [1] was -1.29 ± 0.37; in data set [2] it was 2.21 ± 0.16.
Taken in the same sequence, the figures for “ACATTTGTTGATACAACCATAAAATGATAATTACACCCATTTATTGATAATTATCACACCCATAAATTGATATTGCCTCTGATCATAGTCAGACCAACATTGCTACGACCCGTATTCGCACCGACAC” were -0.33 ± 0.029 and -0.628 ± 0.89.
In the same order, the values of “ACATTTGTTGATACAACCATAAAATGATAATTACACCCATTTTATGATAATTATCACACCCATAAATTGATATTGCCTCTGATCATAGTCAGACCAACATTGCTACGACCCGTATTCGCACCGACAC” are 2.79 ± 0.74 and 2.63 ± 0.56.
In the case of “ACATTTGTTGATACAACCATAAAATGATAATTACACCCCGAAATTGATAATTATCACACCCATAAATTGATATTGCCTCTGATCATAGTCAGACCAACATTGCTACGACCCGTATTCGCACCGACAC”, the “relative integration efficiency (log2)” value is -3.14 ± 0.19 in data set [1] and -2.51 ± 0.16 in data set [2].
Taken in the same sequence, the figures for “ACATTTGTTGATACAACCATAAAATGATAATTACACCCCGCCATTGATAATTATCACACCCATAAATTGATATTGCCTCTGATCATAGTCAGACCAACATTGCTACGACCCGTATTCGCACCGACAC” were -3.5 ± 0.22 and -2.56 ± 0.28.
In the same order, the values of “ACATTTGTTGATACAACCATAAAATGATAATTACACCCCGCCCGGTCGCCGGCGACACAAACGCCCGGTCGCGGTAAGAGGATCATAGTCAGACCAACATTGCTACGACCCGTATTCGCACCGACAC” are -2.33 ± 0.061 and 0.746 ± 0.13.
For the sequence “ACATTTGTTGATACAACCATAAAATGATAATTACACCCCTACATTGATAATTATCACACCCAATTTAACTATAACGCTCTGATCATAGTCAGACCAACATTGCTACGACCCGTATTCGCACCGACAC”, the “relative integration efficiency (log2)” value in data set [1] was -2.87 ± 0.33; in data set [2], 0.306 ± 0.013.
With “ACATTTGTTGATACAACCATAAAATGATAATTACACCCTAAAATTGATAATTATCACACCCATAAATTGATATTGCCTCTGATCATAGTCAGACCAACATTGCTACGACCCGTATTCGCACCGACAC”, the “relative integration efficiency (log2)” value was -0.736 ± 0.05 in data set [1] and -1.14 ± 0.11 in data set [2].
In the same order, the values of “ACATTTGTTGATACAACCATAAAATGATAATTACACCCTATTATTGATAATTATCACACCCATAAATTGATATTGCCTCTGATCATAGTCAGACCAACATTGCTACGACCCGTATTCGCACCGACAC” are -0.713 ± 0.11 and -0.974 ± 0.13.
In the same order, the values of “ACATTTGTTGATACAACCATAAAATGATAATTACACCGTATAATTGATAATTATCACACCCATAAATTGATATTGCCTCTGATCATAGTCAGACCAACATTGCTACGACCCGTATTCGCACCGACAC” are -1.74 ± 0.11 and -1.63 ± 0.12.
In the case of “ACATTTGTTGATACAACCATAAAATGATAATTACACCGTTAAATTGATAATTATCACACCCATAAATTGATATTGCCTCTGATCATAGTCAGACCAACATTGCTACGACCCGTATTCGCACCGACAC”, the “relative integration efficiency (log2)” value in data set [1] is -0.609 ± 0.084; in data set [2], -1.18 ± 0.3.
Taken in the same sequence, the figures for “ACATTTGTTGATACAACCATAAAATGATAATTACACGGATAAATTGATAATTATCACACCCATAAATTGATATTGCCTCTGATCATAGTCAGACCAACATTGCTACGACCCGTATTCGCACCGACAC” were -0.265 ± 0.13 and -0.469 ± 0.21.
For the sequence “ACATTTGTTGATACAACCATAAAATGATAATTACACGGTAAAATTGATAATTATCACACCCATAAATTGATATTGCCTCTGATCATAGTCAGACCAACATTGCTACGACCCGTATTCGCACCGACAC”, the “relative integration efficiency (log2)” value in data set [1] is -1.85 ± 0.1; in data set [2] it was -2.29 ± 0.055.
In the same order, the values of “ACATTTGTTGATACAACCATAAAATGATAATTACAGGCATAAATTGATAATTATCACACCCATAAATTGATATTGCCTCTGATCATAGTCAGACCAACATTGCTACGACCCGTATTCGCACCGACAC” are -0.00584 ± 0.032 and -0.52 ± 0.19.
Taken in the same sequence, the figures for “ACATTTGTTGATACAACCATAAAATGATAATTACAGGGTTAAATTGATAATTATCACACCCATAAATTGATATTGCCTCTGATCATAGTCAGACCAACATTGCTACGACCCGTATTCGCACCGACAC” were -1.5 ± 0.12 and -2.54 ± 0.42.
With “ACATTTGTTGATACAACCATAAAATGATAATTACCAAAATAAATTGATAATTATCACACCCATAAATTGATATTGCCTCTGATCATAGTCAGACCAACATTGCTACGACCCGTATTCGCACCGACAC”, the “relative integration efficiency (log2)” value was -0.773 ± 0.1 in data set [1] and -1.47 ± 0.039 in data set [2].
Taken in the same sequence, the figures for “ACATTTGTTGATACAACCATAAAATGATAATTACCAAACGCCCGGTCGCCGGCGACACAAACGCCCGGTCGCGGTAAGAGGATCATAGTCAGACCAACATTGCTACGACCCGTATTCGCACCGACAC” were -1.94 ± 0.27 and 0.864 ± 0.055.
Taken in the same sequence, the figures for “ACATTTGTTGATACAACCATAAAATGATAATTACCACCATAAATTGATAATTATCACACCCATAAATTGATATTGCCTCTGATCATAGTCAGACCAACATTGCTACGACCCGTATTCGCACCGACAC” were 0.0622 ± 0.17 and -0.372 ± 0.27.

(Values after the supplement of paper PMC10201428.)
